Data: patent US9988424 (DUKE UNIVERSITY, dated 2018)
Where two headings read alike, the source gives them in different places.

Experiments:
A.9004SS V1V2 Tags [1] = target: T1, A.9004SS V1V2 Tags; experiment: ELISA, OD405
T1 Env construct: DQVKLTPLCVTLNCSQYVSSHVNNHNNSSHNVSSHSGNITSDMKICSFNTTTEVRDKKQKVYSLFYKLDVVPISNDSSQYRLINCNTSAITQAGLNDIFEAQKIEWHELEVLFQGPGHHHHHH

D.9009SA V1V2 Tags [2] = target: T2, D.9009SA V1V2 Tags; experiment: ELISA, OD405
T2 Env construct: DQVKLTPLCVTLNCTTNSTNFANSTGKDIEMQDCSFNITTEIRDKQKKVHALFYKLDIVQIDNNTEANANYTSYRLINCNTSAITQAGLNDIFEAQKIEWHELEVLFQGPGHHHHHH

B.Case A2 V1/V2 Tags [3] = target: T3, B.Case A2 V1/V2 Tags; experiment: ELISA, OD405
T3 Env construct: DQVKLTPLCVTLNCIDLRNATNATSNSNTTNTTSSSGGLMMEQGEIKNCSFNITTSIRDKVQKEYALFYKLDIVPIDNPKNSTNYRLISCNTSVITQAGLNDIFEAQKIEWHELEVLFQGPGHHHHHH

B.62357 140C [4] = target: T4, B.62357 140C; experiment: ELISA, OD405
T4 construct: also called B.62357 gp140C

B. 684-6 gp140C [5] = experiment: ELISA, OD405
B.63521 gp140C [6] = experiment: ELISA, OD405
G.con gp140CF [7] = target: T5, G.con gp140CF; experiment: ELISA, OD405
T5 construct: also called G.con.env03 gp140CF

B.63521_V1V2 Tags [8] = target: T6, B.63521_V1V2 Tags; experiment: ELISA, OD405
T6 Env construct: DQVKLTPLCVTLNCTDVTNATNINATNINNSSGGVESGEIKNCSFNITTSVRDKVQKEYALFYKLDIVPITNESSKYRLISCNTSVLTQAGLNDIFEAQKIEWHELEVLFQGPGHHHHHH

C.1086 gp140 [9] = target: T7, C.1086 gp140; experiment: ELISA, OD405
T7 construct: also called C.1086gp140C

B. 681-7 gp140C [10] = experiment: ELISA, OD405
Con 6 gp120 [11] = experiment: ELISA, OD405
AE.con gp140CF [12] = target: T8, AE.con gp140CF; experiment: ELISA, OD405
T8 construct: also called AE.con.env03 gp140CF

B.con gp140CF [13] = target: T9, B.con gp140CF; experiment: ELISA, OD405
T9 construct: also called B.con.env03 gp140CF

A.9004SS V1V2 Tags [14] = target: T1, A.9004SS V1V2 Tags; experiment: ELISA, OD405
D.9009SA V1V2 Tags [15] = target: T2, D.9009SA V1V2 Tags; experiment: ELISA, OD405
B.Case A2 V1/V2 Tags [16] = target: T3, B.Case A2 V1/V2 Tags; experiment: ELISA, OD405
B.62357 140C [17] = target: T4, B.62357 140C; experiment: ELISA, OD405; remark: listed apart in the source
B.HXB/BAL gp140CFI = target: T10, B.HXB/BAL gp140CFI (HIV-1, UniProt P04578 33-680); experiment: ELISA, OD405
T10 construct: also called B.HxB/Ba gp140 CFI

B. 684-6 gp140C [18] = experiment: ELISA, OD405; remark: listed apart in the source
B.040 gp140C = experiment: ELISA, OD405
B.63521 gp140C [19] = experiment: ELISA, OD405; remark: listed apart in the source
G.con gp140CF [20] = target: T5, G.con gp140CF; experiment: ELISA, OD405; remark: listed apart in the source
C.1086 gp120 = C.1086 gp120 (HIV-1); experiment: ELISA, OD405
B.63521_V1V2 Tags [21] = target: T6, B.63521_V1V2 Tags; experiment: ELISA, OD405
C.1086 gp140 [22] = target: T7, C.1086 gp140; experiment: ELISA, OD405; remark: listed apart in the source
B. 681-7 gp140C [23] = experiment: ELISA, OD405; remark: listed apart in the source
Con 6 gp120 [24] = experiment: ELISA, OD405; remark: listed apart in the source
AE.con gp140CF [25] = target: T8, AE.con gp140CF; experiment: ELISA, OD405; remark: listed apart in the source
B.con gp140CF [26] = target: T9, B.con gp140CF; experiment: ELISA, OD405; remark: listed apart in the source
C.CAP206 gp140CF.12 = C.CAP206 gp140CF.12 (HIV-1); experiment: ELISA, OD405 at 10 ug/ml
gp70 B.CaseA2 V1/V2 = target: T11, gp70 B.CaseA2 V1/V2 (HIV-1 V1V2 on murine leukemia virus gp70); experiment: ELISA, OD405 at 10 ug/ml
T11 construct: also called B.gp70CaseA2 V1/V2; gp70 B.CaseAV1V2
T11 chain: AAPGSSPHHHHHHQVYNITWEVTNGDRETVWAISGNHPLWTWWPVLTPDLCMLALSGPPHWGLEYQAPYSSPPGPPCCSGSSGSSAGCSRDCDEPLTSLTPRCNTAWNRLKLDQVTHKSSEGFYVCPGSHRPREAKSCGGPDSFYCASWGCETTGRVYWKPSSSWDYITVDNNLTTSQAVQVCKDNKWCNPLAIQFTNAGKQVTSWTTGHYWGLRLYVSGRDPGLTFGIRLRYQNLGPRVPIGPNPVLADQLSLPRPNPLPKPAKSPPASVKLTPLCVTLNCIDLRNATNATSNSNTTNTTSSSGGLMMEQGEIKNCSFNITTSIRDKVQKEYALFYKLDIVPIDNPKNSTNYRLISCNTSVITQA

A.9004SS V1/V2 tags = target: T12, A.9004SS V1/V2 tags; experiment: ELISA, OD405 at 10 ug/ml
T12 V1V2 tags construct: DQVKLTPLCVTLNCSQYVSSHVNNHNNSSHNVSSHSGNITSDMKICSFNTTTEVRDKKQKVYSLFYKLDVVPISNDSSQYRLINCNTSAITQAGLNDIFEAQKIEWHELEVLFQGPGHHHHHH

G.con gp140CF [27] = experiment: ELISA, OD405 at 10 ug/ml

Measured: binding result

B1: 697D reverted unmutated ancestor antibody (antibody, V domains shown)
VH: QVQLVQSGAEVKKPGSSVKVSCKASGGTFSSYTISWVRQAPGQGLEWMGRIIPILGIANYAQKFQGRVTITADKSTSTAYMELSSLRSEDTAVYYCATSGVGLHFGYFDYWGQGTLVTVSS
VL: QSVLTQPPSVSGAPGQRVTISCTGSSSNIGAGYDVHWYQQLPGTAPKLLIYGNSNRPSGVPDRFSGSKSGTSASLAITGLQAEDEADYYCQSYDSSLSGYVFGTGTKVTVL
notes: also called 697D RUA
no binding (tested: 10 ug/ml): A.9004SS V1V2 Tags [1] | D.9009SA V1V2 Tags [2] | B.Case A2 V1/V2 Tags [3] | B.62357 140C [4] | B. 684-6 gp140C [5] | B.63521 gp140C [6] | G.con gp140CF [7] | B.63521_V1V2 Tags [8] | C.1086 gp140 [9] | B. 681-7 gp140C [10] | Con 6 gp120 [11] | AE.con gp140CF [12] | B.con gp140CF [13]

B2: CH59 reverted unmutated ancestor antibody (antibody, V domains shown)
VH: EVQLVESGGGLVQPGRSLRLSCAASGFTFDDYAMHWVRQAPGKGLEWVSGISWNSGSIGYADSVKGRFTISRDNAKNSLYLQMNSLRAEDTALYYCAKDSPRGELPFDYWGQGTLVTVSS
VL: SYELTQPPSVSVSPGQTARITCSGDALPKKYAYWYQQKSGQAPVLVIYEDSKRPSGIPERFSGSSSGTMATLTISGAQVEDEADYYCYSTDSSGNHRVFGGGTKLTVL
notes: also called CH59 RUA; CH59_RUA
no binding (tested: 10 ug/ml): A.9004SS V1V2 Tags [14] | D.9009SA V1V2 Tags [15] | B.Case A2 V1/V2 Tags [16] | B.62357 140C [17] | B.HXB/BAL gp140CFI | B. 684-6 gp140C [18] | B.040 gp140C | B.63521 gp140C [19] | G.con gp140CF [20] | C.1086 gp120 | B.63521_V1V2 Tags [21] | C.1086 gp140 [22] | B. 681-7 gp140C [23] | Con 6 gp120 [24] | AE.con gp140CF [25] | B.con gp140CF [26]

B3: PG16 reverted unmutated ancestor antibody (antibody, V domains shown)
VH: QVQLVESGGGVVQPGRSLRLSCAASGFTFSSYGMHWVRQAPGKGLEWVAVISYDGSNKYYADSVKGRFTISRDNSKNTLYLQMNSLRAEDTAVYYCAREAGGPIWHDDVKYYDFNDGYYYYYYMDVWGKGTTVTVSS
VL: QSALTQPASVSGSPGQSITISCTGTSSDVGSYNLVSWYQQHPGKAPKLMIYEVSKRPSGVSNRFSGSKSGNTASLTISGLQAEDEADYYCCSLTDRSHRIFGGGTKLTVL
notes: also called PG16 RUA; PG16_RUA
no binding (tested: 10 ug/ml): C.CAP206 gp140CF.12 | gp70 B.CaseA2 V1/V2 | A.9004SS V1/V2 tags | G.con gp140CF [27]
